Consider one molecule from patent US10077295B2, “Glycoproteins having lipid mobilizing properties and therapeutic uses thereof” (Aston University, priority 2010, dated 2018).

Data set [1] has as its system adipocytes and gastrocnemius muscle of ob/ob mice. In words: Glucose uptake into adipocytes and gastrocnemius muscle of ZAG-treated ob/ob mice. It is filed as in vivo, mouse. As for the experimental part: Glucose Uptake into Adipocytyes. Isolated adipocytes (5×10^4) were washed twice in 1 ml Krebs-Ringer bicarbonate buffer, pH 7.2 (KRBS) and further incubated for 10 min at room temperature in 0.5 ml KRBS containing 18.5 MBq 2-[1-^14C] deoxy-D-glucose and non-radioactive 2-deoxy-D-glucose to a final concentration of 0.1 mM. Uptake was terminated by the addition of 1 ml ice-cold glucose-free KRBS, and the cells were washed three times with 1 ml KRBS, lysed by addition of 0.5 ml 1M NaOH and left for at least 1 h at room temperature before the radioactivity was determined by liquid scintillation counting.
Glucose Uptake into Gastrocnemius Muscle—Gastrocnemius muscles were incubated in Krebs-Henseleit bicarbonate buffer for 45 min at 37° C. and then incubated for a further 10 min in 5 ml Krebs-Henseleit buffer containing 185M Bq 2-[1-^14C] deoxy-D-glucose and non-radioactive 2-deoxy-D-glucose to a final concentration of 0.1 mM. The muscles were then removed and washed in 0.9% NaCl for 5 min followed by dissolution in 0.5 ml 1M NaOH and the radioactivity was determined by liquid scintillation counting.

Data set [2] concerns gastrocnemius muscle of ob/ob mice. The experiment in a line: Proteasome activity and Western blots in gastrocnemius muscle of ZAG-treated ob/ob mice. It is filed as in vivo, mouse. The procedure: Measurement of Proteasome and Caspase Activity. […] Gastrocnemius muscle was homogenised in 20 mM Tris, pH7.5, 2 mM ATP, 5 mM MgCl2 and 50 mM DTT at 4° C., sonicated and centrifuged at 18,000 g for 10 min at 4° C. to pellet insoluble material, and the resulting supernatant was used to measure ‘chymotrypsin-like’ enzyme activity in the presence or absence of the proteasome inhibitor lactacystin (10 μM). Only lactacystin suppressible activity was considered as true proteasome activity. The activity of caspase-3 was determined by the release of AMC from AcAsp.Gly.Val.Asp.AMC (SEQ ID NO: 3), and the activity of caspase-8 was determined by the release of 7-amino-4-trifluromethylcoumarin (AFC) from the specific substrate Z-Ile Glu Phe Thr Asp-AFC (SEQ ID NO: 4), using the supernatant from above (50 μg protein), and either the caspase-3 or -8 substrate (10 μM) for 1 h at 37° C., in the presence or absence of the caspase-3 (AcAspGluValAsp-CHO) (SEQ ID NO: 5) or caspase-8 (Ile Glu Phe Thr Asp-CHO) (SEQ ID NO: 6) inhibitors (100 μM). The increase in fluorescence due to […] was determined as above, while the increase in fluorescence due to AFC was measured with an excitation wavelength of 400 nm and an emission wavelength of 505 nm. The difference in values in the absence and presence of the caspase inhibitors was a measure of activity.
(§1) Western Blot Analysis. Freshly excised gastrocnemius muscles were washed in PBS and lysed in PHOSPHOSAFE™ Extraction Reagent for 5 min at room temperature followed by sonication at 4° C. The lysate was cleared by centrifugation at 18,000 g for 5 min at 4° C. and samples of cytosolic protein (5 μg) were resolved on 12% sodium dodecyl sulfate-polyacrylamide gel electrophoresis at 180V for approximately 1 h. This was followed by transference to 0.45 μm nitrocellulose membranes, which were then blocked with 5% Marvel in Tris-buffered saline, pH 7.5, at 4° C. overnight. Both primary and secondary antibodies were used at a dilution of 1:1000 except anti-myosin (1:250). Incubation was for 1 h at room temperature, and development was by ECL. Blots were scanned by a densitometer to quantify differences.

The subject of another data set is murine myotubes. In words: Murine myotubes subjected to high glucose: protein degradation, protein synthesis, ROS, pPKR. In kind it is cell-based, mouse. The procedure:
This utilizes murine myotubes subjected to high concentrations of glucose (10 or 25 mM). […] However the SR compound (i.e., SR59230A) can also act as a β-agonist, which it seemed to do in these experiments.
It has been shown that formation of reactive oxygen species (ROS) is important in protein degradation induced by high glucose load. […] High glucose also induces activation (phosphorylation) of PKR (FIG. 22A) and the subsequent phosphorylation of eIF2α (FIG. 22B) as is seen in skeletal muscle of ob/ob mice, which was also attenuated by ZAG.

A further data set deals with adipocytes, BAT. The experiment in a line: Expression of ZAG, HSL, UCP in adipose tissue/adipocytes of mice (5 day ZAG study). In kind it is in vivo, mouse. The procedure: as §1
A 5 day study was performed where ZAG was administered at 35 μg per day i.v. on a daily basis for 5 days. At the end of the experiment tissues were removed and blotted, or functional assays were carried out with isolated adipocytes. […] When ep adipocytes were prepared and maintained in tissue culture (RPMI 1640+10% FCS) ZAG expression was maintained for a further 3 days, even though no ZAG was added to the culture medium (FIG. 6B). […] In fact, as discussed above, too much ZAG is more likely to lead to resistance rather than an increased response.

Setting [3] is: 10 or 25 mM glucose, ZAG 25 μg/ml.

B1: ZAG: recombinant full length human zinc-α2-glycoprotein (SEQ ID NO: 1) secreted by transfected HEK293F cells; lipid mobilizing factor (protein, listed as Homo sapiens)
chain: QENQDGRYSLTYIYTGLSKHVEDVPAFQALGSLNDLQFFRYNSKDRKSQPMGLWRQVEGMEDWKEDSQLQKAREDMETLKDIVEYYNDSNGSHVLQGRFGCEIENNRSSGAFWKYYYDGKDYIEFNKEIPAWVPFDPAAQITKQKWEAEPVYVQRAKAYLEEECPATLRKYLKYSKNILDRQDPPSVVVTSHQAPGEKKKLKCLAYDFYPGKIDVHWTRAGQVQEPELRGDVLHNGNGTYQSWVVVAVPPQDTAPYSCHVQHSSLAQPLVVPWEAS
For the molecule B1, in data set [1] (absence and presence of insulin (100 nM)), the “glucose uptake into gastrocnemius muscle” value is on record as “significantly enhanced”. In data set [1] (absence of insulin, ob/ob mice treated 5 days), the “glucose uptake into epididymal, visceral and subcutaneous adipocytes” value was “increased glucose uptake”. Further, in data set [2] (gastrocnemius muscle), the “expression of 20S proteasome α-subunits and p42” value was “decreased expression”; the “phosphorylated forms of PKR and eIF2α” value is on record as “reduction in the level of phosphorylated forms”; the “proteasome 'chymotrypsin-like' enzyme activity” value is “decreased activity”. In data set [2] (skeletal muscle), the myosin levels entry is listed as “increased”. Moreover, in the data set with murine myotubes (setting [3]), the “effect on depression of protein synthesis by high glucose” value was “completely attenuated” and the “effect on protein degradation stimulated by high glucose” value is “completely attenuated”. In the data set on murine myotubes (myotubes), the “effect on glucose-induced phosphorylation of PKR and eIF2α” value is on record as “attenuated”; the “effect on increase in ROS produced by glucose” value is reported as “completely attenuates”. The “ZAG expression in epididymal, subcutaneous and visceral fat” value in the data set on adipocytes, BAT (35 μg per day i.v., 5 days) is listed as “about two-fold”. Also, the “time increased response to isoprenaline was maintained in tissue culture without ZAG” value with adipocytes, BAT (adipocytes from ZAG treated mice, isoprenaline 10 μM) turned out to be 4 days. The “expression of phospho HSL in adipocytes” value in the data set on adipocytes, BAT (adipocytes of non-obese mice, 3 h) is on record as “increased expression of phospho HSL”. Besides, the “expression of UCP1 and UCP3 in BAT” value in the data set with adipocytes, BAT (ob/ob mice treated 5 days) is reported as “increased the expression of UCP1”.
